Test results taken from US20160068860A1, “TRANSGENIC PLANTS” (CONSEJO SUPERIOR DE INVESTIGACIONES CIENTIFICAS (CSIC), priority 2013, published 2016).

Experiments:
PP2CA [1] = assay: In vitro phosphatase activity assay with pNPP substrate, PP2CA; assay type: biochemical, Arabidopsis; conditions: absence of ABA
Method: (§1) Phosphatase activity was measured using as a substrate either pNPP or phosphorylated ΔC-ABF2, ΔC-ABI5 and SLAC11-186 proteins. For the pNPP substrate, assays were performed in a 100 μl solution containing 25 mM Tris-HCl pH 7.5, 2 mM MnCl2 and 5 mM pNPP. Assays contained 2 μM phosphatase (PP2CA or HAB1), 4 μM receptor and the indicated concentrations of ABA. Phosphatase activity was recorded with a ViktorX5 reader at 405 nm every 60 seconds over 30 minutes and the activity obtained after 30 minutes is indicated in the graphics. In order to obtain phosphorylated ΔCABF2, ΔC-ABI5 and SLAC11-186 proteins, OST1 phosphorylation assays were done basically as described previously (Dupeux et al., 2011 b). ΔC-ABF2 and SLAC11-186 N-terminal fragments were prepared as described (Antoni et al., 2012; Vahisalu et al., 2010). ΔC-ABI5 recombinant protein (amino acid residues 1-200, containing the C1, C2 and C3 target sites of ABA-activated SnRK2s) was expressed in the pETM11 vector as described above. The reaction mixture containing the OST1 kinase and either ΔCABF2, ΔC-ABI5 or SLAC11-186 recombinant proteins were incubated for 50 min at room temperature in 30 μl of kinase buffer: 20 mM Tris-HCl pH 7.8, 20 mM MgCl2, 2 mM MnCl2, and 3.5 μCi of γ-32ATP (3000 Ci/mmol). Thus, OST1 was autophosphorylated and in turn it phosphorylated ΔC-ABF2, ΔC-ABI5 and SLAC11-186 proteins. Next, they were used as substrates of PP2CA that was preincubated (or not) for 10 with PYL4 or PYL4A194T (1:10 phosphatase:receptor ratio) either in the absence or presence of 30 μM ABA. The reaction was stopped by adding Laemmli buffer and the proteins were separated by SDS-PAGE using an 8% acrylamide gel and transferred to an Immobilon-P membrane (Millipore). Radioactivity was detected and quantified using a Phosphorimage system (FLA5100, Fujifilm). After scanning, the same membrane was used for Ponceau staining. The data presented are averages of at least three independent experiments.

[2] = biological target: T1, PP2CA (clade A protein phosphatase 2C, At3g11410) (Arabidopsis thaliana, UniProt P49598 1-399, limits assumed); assay: yeast two-hybrid growth assay, absence of ABA; H82R was found combined with V97A
T1 construct: BiFC: PP2CA-YFPN (pSPYNE-35S); also called AtPP2CA
T1 sequence (looked up): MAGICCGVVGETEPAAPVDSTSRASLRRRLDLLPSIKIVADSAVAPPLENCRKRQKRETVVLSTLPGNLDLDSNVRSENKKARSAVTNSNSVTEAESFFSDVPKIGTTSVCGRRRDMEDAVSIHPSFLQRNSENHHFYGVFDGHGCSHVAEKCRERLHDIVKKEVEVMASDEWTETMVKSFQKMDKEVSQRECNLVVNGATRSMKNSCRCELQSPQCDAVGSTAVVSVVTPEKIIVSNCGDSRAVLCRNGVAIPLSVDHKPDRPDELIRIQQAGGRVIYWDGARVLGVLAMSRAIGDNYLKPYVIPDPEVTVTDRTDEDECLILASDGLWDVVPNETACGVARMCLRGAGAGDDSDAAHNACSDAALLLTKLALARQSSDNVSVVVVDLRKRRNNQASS

HAB1 = assay: BiFC assay with HAB1 in N. benthamiana leaves; assay type: cell-based; conditions: no exogenous ABA
Method: (§2) Experiments were performed basically as described by Voinnet et al., (2003). The different binary vectors described above where introduced into Agrobacterium tumefaciens C58C1 (pGV2260) (Deblaere et al., 1985) by electroporation and transformed cells were selected in LB plates supplemented with kanamycin (50 μg/ml). Then, they were grown in liquid LB medium to late exponential phase and cells were harvested by centrifugation and resuspended in 10 mM morpholinoethanesulphonic (MES) acid-KOH pH 5.6 containing 10 mM MgCl2 and […] acetosyringone to an OD600 nm of 1. These cells were mixed with an equal volume of Agrobacterium C58C1 (pCH32 35S:p19) expressing the silencing suppressor p19 of tomato bushy stunt virus (Voinnet et al., 2003) so that the final density of Agrobacterium solution was about 1. Bacteria were incubated for 3 h at room temperature and then injected into young fully expanded leaves of 4-week-old N. benthamiana plants. Leaves were examined after 3-4 days under a Leica TCS-SL confocal microscope and laser scanning confocal imaging system. Quantification of fluorescent protein signal was done as described (Gampala et al., 2007) using the National Institutes of Health (NIH) Image software ImageJ v1.37. […]

RAB18 = assay: Quantitative RT-PCR of ABA-responsive gene RAB18 in OE plants; assay type: in vivo, Arabidopsis thaliana
Method: ABA treatment, RNA extraction and quantitative RT-PCR amplifications were performed as previously described (Saez et al., 2004).

PP2CA [3] = biological target: T2, PP2CA (Arabidopsis thaliana, UniProt O80920+P49598, A194T); assay: In vitro phosphatase activity assay with pNPP substrate, PP2CA; assay type: biochemical; design: made in house; host or cells: E. coli BL21 (DE3); conditions: for inhibitory effect on the activity of PP2CA with respect to PYL4: absence of ABA, 2 μM phosphatase, 4 μM receptor
Method: as §1

PP2CA [4] = biological target: T2, PP2CA; assay: BiFC assay with PP2CA in N. benthamiana leaves; assay type: cell-based; design: expressed in transfected cells; host or cells: N. benthamiana leaf epidermal cells (Agroinfiltration); conditions: no exogenous ABA; compared to PYL4
Method: as §2

B1: PYL4H82R V97A (AtPYL H82 and V97A) (receptor)
chain: MLAVHRPSSAVSDGDSVQIPMMIASFQKRFPSLSRDSTAARFHTHEVGPNQCCSAVIQEISAPISTVWSVVRRFDNPQAYKRFLKSCSVIGGDGDNAGSLRQVHVVSGLPAASSTERLDILDDERHVISFSVVGGDHRLSNYRSVTTLHPSPISGTVVVESYVVDVPPGNTKEETCDFVDVIVRCNLQSLAKIAENTAAESKKKMSL
notes: also called PYL4H82R (found combined with V97A)
effect on PP2CA activity (PP2CA [1]): did not affect PP2CA activity | binding result [2]: binds

B2: PYL4A194T: AtPYL4 ABA receptor mutant polypeptide with A194T substitution (SEQ ID NO. 60; nucleic acid SEQ ID NO: 55); also over-expressed in plants (protein, listed as Arabidopsis thaliana)
chain: MLAVHRPSSAVSDGDSVQIPMMIASFQKRFPSLSRDSTAARFHTHEVGPNQCCSAVIQEISAPISTVWSVVRRFDNPQAYKHFLKSCSVIGGDGDNVGSLRQVHVVSGLPAASSTERLDILDDERHVISFSVVGGDHRLSNYRSVTTLHPSPISGTVVVESYVVDVPPGNTKEETCDFVDVIVRCNLQSLAKITENTAAESKKKMSL
interaction with HAB1 (BiFC), PYL4 versus PYL4A194T (HAB1): did not differ significantly | induction of RAB18 after ABA-treatment (RAB18; 10 μM ABA for 3 h): not higher than in non-transformed plants | expression of RAB18 up-regulated compared to non-transformed plants (RAB18; absence of exogenous ABA treatment): 6 fold | inhibitory effect on the activity of PP2CA with respect to PYL4 (PP2CA [3]): around 20% | inhibitory effect on the activity of PP2CA with respect to PYL4 (PP2CA [3]; listed as PYL4^A194T): 20% | inhibition of PP2CA (PP2CA [3]; presence of 1 μM ABA): higher inhibition of PP2CA than PYL4 | relative fluorescence emission of interaction with PP2CA (PP2CA [4]): higher
